Drawing on US11891427B2, “Amidated peptides and their deamidated counterparts displayed by non-HLA-a*02 for use in immunotherapy against different types of cancers” (Immatics Biotechnologies GmbH, priority 2020, dated 2024), this text covers Peptide exchange for 83 substances.

One assay deals with HLA-A*24:02 (Homo sapiens, UniProt P04439, D101N/D140Y/D185E/E176V/E190D/F33S/G103R/G107R/I119L/I121M/I306V/K335N/L105A/L180Q/L300P/N151K/N90K/Q86E/Q94H/R106L/R138H/R89G/T104I/T345S/V100E/W191G/Y123F). The experiment in a line: MHC binding assay (UV-ligand exchange, beta2m ELISA). The note with it: binding to HLA-A*24:02, ranged by peptide exchange yield. An excerpt: (§1) Candidate peptides for T cell based therapies according to the present invention were further tested for their MHC binding capacity (affinity). The individual peptide-MHC complexes were produced by UV-ligand exchange, where a UV-sensitive peptide is cleaved upon UV-irradiation and exchanged with the peptide of interest as analyzed. Only peptide candidates that can effectively bind and stabilize the peptide-receptive MHC molecules prevent dissociation of the MHC complexes. To determine the yield of the exchange reaction, an ELISA was performed based on the detection of the light chain (β2m) of stabilized MHC complexes. The assay was performed as generally described in Rodenko et al. (Rodenko et al., 2006).
(§2) 96 well MAXISorp plates (NUNC) were coated over night with 2 μg/ml streptavidin in PBS at room temperature, washed 4× and blocked for 1 h at 37° C. in 2% BSA containing blocking buffer. Refolded HLA-A*02:01/MLA-001 monomers served as standards, covering the range of 15-500 ng/ml. Peptide-MHC monomers of the UV-exchange reaction were diluted 100-fold in blocking buffer. Samples were incubated for 1 h at 37° C., washed four times, incubated with 2 μg/ml HRP conjugated anti-β2m for 1 h at 37° C., washed again and detected with TMB solution that is stopped with […]. Absorption was measured at 450 nm. Candidate peptides that show a high exchange yield (preferably higher than 50%, most preferred higher than 75%) are generally preferred for a generation and production of antibodies or fragments thereof, and/or T cell receptors or fragments thereof, as they show sufficient avidity to the MHC molecules and prevent dissociation of the MHC complexes.
In general terms: ELISA stands for enzyme-linked immunosorbent assay.
Consider 66 (YHDQTISF) [compound 66], for which the Peptide exchange entry is “+ (≥10% = +)”. On the same count and under the same terms, the entry for 1 (VHDFTLPSW) [compound 1] is “++ (≥20% = ++)”; for 43 (FFTDKTLSF) [compound 43] it is “++++ (≥75% = ++++)”.

As to 65 (IYQFARLDY) [compound 65], the Peptide exchange entry is on record as “++ (≥20% = ++)”.

For the substance 95 (VYIDDSVEL) [compound 95], the Peptide exchange result was “++++ (≥75% = ++++)”. On the same count and under the same terms, then 24 (FYDNSVIIF) [compound 24], with “++ (≥20% = ++)”; and 97 (RYVNDYTNSF) [compound 97], with “++++ (≥75% = ++++)”. Same read-out and setting: the entry for 99 (VYVDTTELAL) [compound 99] is “++++ (≥75% = ++++)”; for 64 (FHYDDTAGYF) [compound 64] it is “+ (≥10% = +)”; for 68 (VFDETKNLL) [compound 68] it is “++ (≥20% = ++)”. Same read-out and setting: the entry for 57 (FYDLSIQSF) [compound 57] is “++++ (≥75% = ++++)”; for 102 (IYPDGTLLI) [compound 102] it is “++++ (≥75% = ++++)”.

Consider 104 (HLFYDVTVF) [compound 104], for which the Peptide exchange entry is on record as “++ (≥20% = ++)”. The same measure, in the same setting: the entry for 101 (VYLDASKVPGF) [compound 101] is “++++ (≥75% = ++++)”. Still for that read-out and setting: the entry for 98 (AFDKTIVKL) [compound 98] is “++ (≥20% = ++)”; for 100 (EYQDFSTLF) [compound 100] it is “++++ (≥75% = ++++)”; for 2 (FFQDSTFSF) [compound 2] it is “++++ (≥75% = ++++)”.

Take 9 (IFDETGRF) [compound 9]: the Peptide exchange result is on record as “++ (≥20% = ++)”. The same measure, in the same setting: the entry for 45 (YFVDVTTRI) [compound 45] is “+++ (≥50% = +++)”; for 67 (QAIDLSLNF) [compound 67] it is “++ (≥20% = ++)”; for 5 (GYIDDVTLI) [compound 5] it is “+++ (≥50% = +++)”.

With 103 (RQDESYLNF) [compound 103], the Peptide exchange entry is given as “++ (≥20% = ++)”. On the same count and under the same terms, then 55 (VYTDISHHF) [compound 55], with “++++ (≥75% = ++++)”.

Regarding 38 (KLTDNSNQF) [compound 38], the Peptide exchange result is recorded as “++ (≥20% = ++)”. Take 26 (IYPDASLLIQNI) [compound 26]: the Peptide exchange entry is “++++ (≥75% = ++++)”. As for 76 (TYLPTDASLSF) [compound 76], the Peptide exchange entry was “++++ (≥75% = ++++)”.

For 36 (YWDETLKEF) [compound 36], the Peptide exchange entry is “+++ (≥50% = +++)”. The same measure, in the same setting: then 23 (SYDETKIKF) [compound 23], with “+ (≥10% = +)”; and 69 (KSYHDQTISF) [compound 69], with “++++ (≥75% = ++++)”; and 96 (IFVPTDRSL) [compound 96], with “++ (≥20% = ++)”.

For the substance 54 (QYQDTTVSF) [compound 54], the Peptide exchange entry was “+++ (≥50% = +++)”.

Another assay has as its target HLA-A*01:01 (Homo sapiens, UniProt P04439, A114D/A174V/A182V/D101N/D185E/E176A/E190D/L180R/Q94H/R68K/S129P/T187R/V100A/V91M/W191G). The description is as above. The note with it: binding to HLA-A*01:01, ranged by peptide exchange yield.
Source text: as §1, §2
For the substance 25 (FTDLITDESINY) [compound 25], the Peptide exchange result was “++++ (≥75% = ++++)”. As for 92 (GQYDDSLQAY) [compound 92], the Peptide exchange result is reported as “++ (≥20% = ++)”. On the same count and under the same terms, then 16 (VTQDDTGFY) [compound 16], with “++++ (≥75% = ++++)”; and 6 (ISDITEKNSGLY) [compound 6], with “++++ (≥75% = ++++)”; and 20 (TSDTSQYDTY) [compound 20], with “+++ (≥50% = +++)”. On the same count and under the same terms, the entry for 49 (PSDGSMHNY) [compound 49] is “++++ (≥75% = ++++)”. Turning to 86 (ILPDITTTY) [compound 86], the Peptide exchange result is recorded as “++ (≥20% = ++)”. Same read-out and setting: the entry for 80 (LTNDQTLRL) [compound 80] is “+++ (≥50% = +++)”; for 83 (TFVDASRTLY) [compound 83] it is “++++ (≥75% = ++++)”; for 13 (TANYDTSHY) [compound 13] it is “++ (≥20% = ++)”. Same read-out and setting: the entry for 50 (RSIDVTGQGF) [compound 50] is “++ (≥20% = ++)”; for 87 (ITDDTVQTY) [compound 87] it is “++++ (≥75% = ++++)”; for 52 (LTEVEKDATALY) [compound 52] it is “++++ (≥75% = ++++)”. On to 94 (YSIDVTNVM) [compound 94], for which the Peptide exchange entry is on record as “+++ (≥50% = +++)”. Same read-out and setting: then 37 (RSLDCTVKTY) [compound 37], with “+++ (≥50% = +++)”; and 89 (HVSDVTVNY) [compound 89], with “++ (≥20% = ++)”; and 12 (ITDTSLNLF) [compound 12], with “++++ (≥75% = ++++)”. The same measure, in the same setting: then 93 (HADLTTLTF) [compound 93], with “++ (≥20% = ++)”; and 11 (NHITDTSLNLF) [compound 11], with “++ (≥20% = ++)”; and 59 (ILFSDSTRLSF) [compound 59], with “+++ (≥50% = +++)”. Still for that read-out and setting: the entry for 82 (VTDVTEEHY) [compound 82] is “++++ (≥75% = ++++)”; for 10 (QVDGSLLVI) [compound 10] it is “++ (≥20% = ++)”. On to 4 (YIDDVTLI) [compound 4], for which the Peptide exchange entry is recorded as “++ (≥20% = ++)”. Same read-out and setting: then 90 (HVDNSNLNY) [compound 90], with “++++ (≥75% = ++++)”; and 19 (MTDVDRDGTTAY) [compound 19], with “++++ (≥75% = ++++)”.

For the substance 18 (GTDKQDSTLRY) [compound 18], the Peptide exchange result is reported as “++++ (≥75% = ++++)”. Still for that read-out and setting: the entry for 81 (VTETMGIDGSAY) [compound 81] is “++++ (≥75% = ++++)”. 85 (EVQDHSTSSY) [compound 85]: the Peptide exchange result is on record as “++ (≥20% = ++)”. Still for that read-out and setting: the entry for 91 (GVDDTSLLY) [compound 91] is “++++ (≥75% = ++++)”; for 88 (WLDRSTILY) [compound 88] it is “++++ (≥75% = ++++)”. Same read-out and setting: then 51 (RVDDITDQF) [compound 51], with “++ (≥20% = ++)”; and 79 (FTDTSSYEY) [compound 79], with “++++ (≥75% = ++++)”. The same measure, in the same setting: then 60 (HVKDATMGY) [compound 60], with “+++ (≥50% = +++)”; and 34 (LSDLSLADI) [compound 34], with “++ (≥20% = ++)”. Regarding 33 (ISDGMDSSAHY) [compound 33], the Peptide exchange result is given as “++++ (≥75% = ++++)”.

On to 7 (VTRDDTASY) [compound 7], for which the Peptide exchange entry is on record as “++ (≥20% = ++)”.

Take 84 (EVEGVIDGTYDY) [compound 84]: the Peptide exchange result is listed as “++++ (≥75% = ++++)”. Still for that read-out and setting: the entry for 58 (GTDQTGKGLEY) [compound 58] is “+++ (≥50% = +++)”.

Another assay has as its target HLA-B*44:05 (Homo sapiens, UniProt P01889, A223V/A65T/A93T/A95T/D201E/D98Y/E176V/E187L/E204Q/E69K/G107R/H137Y/K202T/L105A/L119I/N104T/N87E/Q56L/Q94N/R106L/R155S/R180D/S101N/S121R/S35A/S48T/T118I/V36M/W191S/Y91S). The description is as above. The note with it: binding to HLA-B*44:05, ranged by peptide exchange yield.
Source text: as §1, §2
As for 77 (KPREEQYDSTY) [compound 77], the Peptide exchange entry is “++++ (≥75% = ++++)”.

For 74 (LENMYDLTF) [compound 74], the Peptide exchange result is listed as “++++ (≥75% = ++++)”. Same read-out and setting: the entry for 108 (DETHTLQF) [compound 108] is “++++ (≥75% = ++++)”; for 111 (GEYRCQTDL) [compound 111] it is “++++ (≥75% = ++++)”. Same read-out and setting: then 44 (KENQDHSYSL) [compound 44], with “++++ (≥75% = ++++)”.

On to 78 (DETIWYVRF) [compound 78], for which the Peptide exchange result is recorded as “++++ (≥75% = ++++)”. On to 75 (QEVDISLHY) [compound 75], for which the Peptide exchange result is on record as “++++ (≥75% = ++++)”. Same read-out and setting: the entry for 112 (AEFFDYTVRTL) [compound 112] is “++++ (≥75% = ++++)”. On to 110 (AESLAVHDI) [compound 110], for which the Peptide exchange result is listed as “+++ (≥50% = +++)”. The same measure, in the same setting: then 109 (DETAAYKIM) [compound 109], with “+++ (≥50% = +++)”; and 73 (DESKYTWSW) [compound 73], with “++++ (≥75% = ++++)”; and 113 (TDFTKIASF) [compound 113], with “++++ (≥75% = ++++)”. Still for that read-out and setting: then 15 (TEGDFTKEASTY) [compound 15], with “+++ (≥50% = +++)”; and 46 (KEVDDTLLVNEL) [compound 46], with “++++ (≥75% = ++++)”.
